In patent publication US20250074980A1 (BRIGHAM AND WOMEN S HOSPITAL, published 2025):
Positions count from the first letter of the chain named. Names may count otherwise. Each block holds one molecule with its values, some of them ahead of it.

What was measured:
[1] = target: T1, CEACAM6 on transfected HeLa cells (human, UniProt P40199 35-320); assay: flow cytometry, transfected HeLa
T1 construct: whole, on cells; also called HeLa-CEACAM6; HeLa C6
T1 sequence (looked up): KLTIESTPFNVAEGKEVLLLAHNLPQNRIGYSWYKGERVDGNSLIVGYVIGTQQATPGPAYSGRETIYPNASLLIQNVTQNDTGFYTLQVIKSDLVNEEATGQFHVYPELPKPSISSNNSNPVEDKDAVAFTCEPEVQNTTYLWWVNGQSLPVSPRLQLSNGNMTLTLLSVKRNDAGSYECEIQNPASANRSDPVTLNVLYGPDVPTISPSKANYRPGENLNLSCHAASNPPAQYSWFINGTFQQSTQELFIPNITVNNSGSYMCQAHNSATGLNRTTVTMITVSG

[2] = target: T2, CEACAM1 on transfected HeLa cells (human, UniProt P13688 35-526); assay: flow cytometry, transfected HeLa
T2 construct: also called HeLa-CEACAM1; HeLa C1
T2 sequence: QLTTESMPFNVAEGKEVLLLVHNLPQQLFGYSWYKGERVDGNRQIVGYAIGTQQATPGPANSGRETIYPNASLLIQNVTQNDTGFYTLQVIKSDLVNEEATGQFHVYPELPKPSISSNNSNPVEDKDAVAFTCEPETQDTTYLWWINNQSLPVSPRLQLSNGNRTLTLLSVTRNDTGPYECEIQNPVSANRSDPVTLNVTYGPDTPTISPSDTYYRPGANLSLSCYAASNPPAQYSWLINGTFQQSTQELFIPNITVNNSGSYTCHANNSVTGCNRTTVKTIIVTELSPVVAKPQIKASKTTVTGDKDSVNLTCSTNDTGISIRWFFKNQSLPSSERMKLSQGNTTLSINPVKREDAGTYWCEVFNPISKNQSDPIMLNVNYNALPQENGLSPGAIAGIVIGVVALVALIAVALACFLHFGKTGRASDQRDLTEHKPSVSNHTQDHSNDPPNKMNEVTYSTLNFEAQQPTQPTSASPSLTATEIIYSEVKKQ

[3] = target: T3, CEACAM5 on transfected HeLa cells (human, UniProt P06731 35-685); assay: flow cytometry, transfected HeLa
T3 construct: whole, on cells; also called HeLa-CEACAM5; HeLa C5
T3 sequence (looked up): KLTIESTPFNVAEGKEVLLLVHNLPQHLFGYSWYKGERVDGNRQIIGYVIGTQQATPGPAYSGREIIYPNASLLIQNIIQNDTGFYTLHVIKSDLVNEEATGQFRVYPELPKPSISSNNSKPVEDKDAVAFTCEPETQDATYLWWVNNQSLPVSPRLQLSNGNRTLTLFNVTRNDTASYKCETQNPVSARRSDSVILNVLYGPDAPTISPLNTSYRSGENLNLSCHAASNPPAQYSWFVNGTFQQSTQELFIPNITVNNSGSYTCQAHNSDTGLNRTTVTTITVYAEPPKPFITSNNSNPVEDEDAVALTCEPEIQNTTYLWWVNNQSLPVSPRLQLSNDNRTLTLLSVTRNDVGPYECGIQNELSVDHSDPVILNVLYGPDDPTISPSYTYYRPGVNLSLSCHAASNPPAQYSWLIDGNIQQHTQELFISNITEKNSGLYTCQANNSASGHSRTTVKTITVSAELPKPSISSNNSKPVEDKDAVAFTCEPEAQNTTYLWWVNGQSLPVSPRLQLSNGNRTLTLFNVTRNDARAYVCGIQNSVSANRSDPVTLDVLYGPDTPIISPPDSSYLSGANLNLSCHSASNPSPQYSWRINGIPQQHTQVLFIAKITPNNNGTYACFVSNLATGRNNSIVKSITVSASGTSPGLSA

GST-CEACAM1 = target: T4, GST-CEACAM1 (human, UniProt P13688 35-141, limits assumed); assay: scFv binding ELISA on GST-CEACAM1 coated at 1.0 µg/ml, anti-HIS6-HRP and TMB
T4 construct: also called human CEACAM1-GST protein
T4 sequence: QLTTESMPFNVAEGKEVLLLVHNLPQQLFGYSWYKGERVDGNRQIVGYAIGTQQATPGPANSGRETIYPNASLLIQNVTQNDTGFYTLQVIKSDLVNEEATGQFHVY
Protocol: The binding of affinity matured purified scFv to human CEACAM1 was analyzed using GST-CEACAM1. A Nunc Immuno MaxiSorp 96 well flat bottom microtitre plate was pre-coated with 1.0 μg/ml GST-CEACAM1 overnight at 4° C. The following day a two-fold dilution series of VH1/Vκ8 S29A parent scFv or test scFv (50 μg/ml to 0.8 μg/ml) in PBSB was incubated for 2 hours at RT on pre-coated ELISA plates. The binding of scFv was detected with an anti-HIS6-HRP antibody and TMB substrate. The reaction was stopped with 3 M HCl, absorbance read at 450 nm on a Dynex Technologies MRX TC II plate reader and the binding curves plotted. Parent scFv (VH1/Vκ8 S29A scFv) was included on each ELISA plate as a reference. An irrelevant scFv was included on at least one plate as a negative control. It was observed that a number of scFvs had improved binding to CEACAM1 compared to the parental VH1/Vκ8 S29A scFv. […] All 34 scFv variants were reformatted to whole IgG to provide greater accuracy with regard to purity and quantitation. The reformatting further allowed for an analysis of the avidity component of antibody binding, which is influenced by the bivalent nature of IgGs. As used herein, “avidity” is the measure of the strength of binding between an antigen-binding molecule (such as an antibody or antibody fragment thereof described herein) and the pertinent antigen.

His-tagged CEACAM1 [4] = target: T5, His-tagged CEACAM1 (human, UniProt P13688 35-428); assay: SPR single-cycle, purified IgG captured
T5 construct: 45 kDa SPR analyte; also called CEACAM1-HIS; CEACAM1 analyte
T5 sequence: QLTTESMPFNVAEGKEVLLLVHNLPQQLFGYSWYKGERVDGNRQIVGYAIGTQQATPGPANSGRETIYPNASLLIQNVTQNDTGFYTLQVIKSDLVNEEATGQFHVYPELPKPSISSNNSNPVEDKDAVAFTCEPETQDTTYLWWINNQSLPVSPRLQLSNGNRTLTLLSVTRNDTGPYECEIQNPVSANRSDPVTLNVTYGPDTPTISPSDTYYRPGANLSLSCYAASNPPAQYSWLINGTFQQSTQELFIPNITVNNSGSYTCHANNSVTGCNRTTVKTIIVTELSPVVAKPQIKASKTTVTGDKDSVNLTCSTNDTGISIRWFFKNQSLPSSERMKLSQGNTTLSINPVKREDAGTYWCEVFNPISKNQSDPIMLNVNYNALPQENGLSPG
Outline: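 Binding was measured by surface plasmon resonance in single-cycle kinetics mode on a Biacore T200, running in HBS-P+ (pH 7.4) at 25° C. His-tagged CEACAM1 served as analyte over purified IgG captured on a Series S Protein A chip. After subtraction of reference-channel and blank-run signals, kon, koff and Kd were fitted, and relative KD was expressed against the parent antibody from the same experiment.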

[5] = target: T3, CEACAM5 on transfected HeLa cells; assay: flow cytometry, HeLa-CEACAM5 transfectants, % staining, stacked bars
Description: (§1) FIG. 11 illustrates the binding selectivity of different affinity-matured CEACAM1 antibodies. […] HELA cells were transfected with vector alone (HeLa-Neo) or vectors expressing CEACAM1, CEACAM3, CEACAM5, or CEACAM6, respectively, and stained with the indicated antibodies. […] MOPC=mouse IgG1 control antibody. Mouse antibodies as positive control for transfected CEACAM isoforms: Col-1=CEACAM3 and CEACAM5 antibody. 9A6=CEACAM6 antibody. T84.1=CEACAM cross-reactive antibody and T84.66=CEACAM5 antibody. Only 2nd FITC=No primary antibody, only secondary FITC conjugated antibody. […] Data for affinity-matured antibodies 9B3_8H3/Vκ8 S29A, 8H3_9B3/CP08_E05, and 8H3_9C2/CPO08_F05, as well as data for CEACAM8 antibody 80H3 were omitted from the FIG. due to an unusually high background signal.

His-tagged CEACAM1 [6] = target: T5, His-tagged CEACAM1; assay: SPR single-cycle, supernatant IgG captured
Outline: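 Antibody IgG was produced by transient PEI transfection of HEK EBNA cells in 6-well plates, with supernatants collected 5-7 days later, quantified by ELISA and filtered. Binding was measured by single-cycle surface plasmon resonance on a Biacore T200 at 25° C in HBS-P+ (pH 7.4), capturing IgG on Protein A and flowing His-tagged CEACAM1 as analyte. Kon, koff and Kd were obtained by fitting, and relative KD was expressed against the parent antibody tested in the same experiment.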

[7] = target: T1, CEACAM6 on transfected HeLa cells; assay: flow cytometry, HeLa-CEACAM6 transfectants, % staining, stacked bars
Description: as §1

[8] = target: T6, CEACAM3 on transfected HeLa cells (human, UniProt P40198 35-252); assay: flow cytometry, HeLa-CEACAM3 transfectants, % staining, stacked bars
T6 construct: whole, on cells; also called HeLa-CEACAM3; HeLa C3
T6 sequence (looked up): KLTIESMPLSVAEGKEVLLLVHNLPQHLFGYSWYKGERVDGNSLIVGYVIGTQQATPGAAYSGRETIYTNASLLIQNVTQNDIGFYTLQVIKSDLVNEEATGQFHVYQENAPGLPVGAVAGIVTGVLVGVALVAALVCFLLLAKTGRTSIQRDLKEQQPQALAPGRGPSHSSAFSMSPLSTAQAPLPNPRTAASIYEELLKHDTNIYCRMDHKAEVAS
Description: as §1

His-tagged CEACAM1 [9] = target: T5, His-tagged CEACAM1; assay: SPR multi-cycle
Outline: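 Kon, koff, Kd and relative KD were derived from multi-cycle surface plasmon resonance sensorgrams recorded on a Biacore T200. Runs were at 25° C in HBS-P+ (pH 7.4), with purified antibody at 1 μg/ml captured to ~75 RU on a Series S Protein A chip. His-tagged CEACAM1 was passed over as analyte at 80 μl/min in 2-fold dilutions from 200 to 3.125 nM or from 100 to 1.5625 nM, with 50 or 150 seconds of association, 100 seconds of dissociation and glycine-HCl pH 1.5 for regeneration.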

B1: CP08C04 (scFv)
scFv, VH-linker-VL: EVQLLESGGGLVQPGGSLRLSCAASGFTFSSHGMSWVRQAPGKGLEWVATISSGGTYTYYPDSVKGRFTISRDNSKNTLYLQMNSLKAEDTAMYYCARHDFDYDAAWFAYWGQGTLVTVSSGGGGSGGGGSGGGGSEIVLTQSPATLSLSPGERATLSCRANSAVSYMYWYQQKPGQAPRPWIYLTSNRATGVPARFSGSGSGTDYTLTISSLEPEDFAVYYCQQWSSNPPTFGQGTKLEIK
notes: purified scFv form; the IgG form is m90
- EC50 (read off the curve) (GST-CEACAM1): ~10 mg/L

B2: CP09F03 (scFv)
scFv, VH-linker-VL: B1 scFv, VH-linker-VL with S30N, S31N
notes: purified scFv form; the IgG form is m63
- EC50 (read off the curve) (GST-CEACAM1): ~10 mg/L

B3: CP08H03/CP08E05 (antibody, IgG4, V domains shown)
VH: EVQLLESGGGLVQPGGSLRLSCAASGFIFSSHGMSWVRQAPGKGLEWVATISSGGTYTYYPDSVKGRFTISRDNSKNTLYLQMNSLKAEDTAMYYCARHDFDYFPYWFAHWGQGTLVTVSS
VL: EIVLTQSPATLSLSPGERATLSCRANSAVSYMYWYQQKPGQAPRPWIYLTSNRATGVPARFSGSGSGTDYTLTISSLEPEDFAVYYCQQWTTNPPTFGQGTKLEIK
notes: IgG4 (S241P), kappa
- Kd (His-tagged CEACAM1 [4]): 0.11 µM
- koff (His-tagged CEACAM1 [4]): 0.008 s⁻¹
- kon (His-tagged CEACAM1 [4]): 76000 M⁻¹ s⁻¹
- relative KD to parent (His-tagged CEACAM1 [4]): 4.5
- binding result [5]: no binding
- Kd (His-tagged CEACAM1 [6]): 0.12 µM
- koff (His-tagged CEACAM1 [6]): 0.0085 s⁻¹
- kon (His-tagged CEACAM1 [6]): 71000 M⁻¹ s⁻¹
- relative KD to parent (His-tagged CEACAM1 [6]): 4.6
- binding result [7]: no binding
- binding result [8]: no binding

Continued, values first:

- relative amount of cells bound [1]: 1.39
- relative amount of cells bound [2]: 0.37
- relative amount of cells bound [3]: 1.02
Molecule: irrelevant IgG4 antibody

- relative amount of cells bound [1]: 0.18
- relative amount of cells bound [2]: 79.9
- relative amount of cells bound [3]: 15.5
- Kd (His-tagged CEACAM1 [9]): 0.198 µM
- koff (His-tagged CEACAM1 [9]): 0.0299 s⁻¹
- kon (His-tagged CEACAM1 [9]): 151000 M⁻¹ s⁻¹
- relative KD (His-tagged CEACAM1 [9]): 1.89
B4: VH0/Vκ0 N26Q (antibody, IgG4, name in Kabat numbering, V domains shown)
VH: EVQLVESGGDLVKPGGSLKLACAASGFIFSSHGMSWVRQTPDKRLEWVATISSGGTYTYYPDSVKGRFTISRDNDKNTLYLQMNSLKSEDTAMYYCARHDFDYDAAWFAYWGQGTLVTVSS
VL: QIVLTQSPALMSASPGVKVTMTCSAQSSVSYMYWYRQKPRSSPKPWIYLTSNLASGVPARFSGSGSGTSYSLTISSMEAEDAATYYCQQWSSNPPTFGSGTKLEIK
notes: aglycosylated chimeric, IgG4 (S241P), kappa
